What is called Kd is the constant that tells how readily two partners part at equilibrium. A higher Kd goes with weaker binding. The stoichiometry N is a count of units in the complex or per binding partner.

The source of these data is PMC4208761, “Molecular Insights into the Interaction between Plasmodium falciparum Apical Membrane Antigen 1 and an Invasion-Inhibitory Peptide” (PLoS ONE, 2014).

For one assay, the target named is T1, 3D7 PfAMA1_104–442 (Plasmodium falciparum, UniProt Q7KQK5).
T1 construct: His6 (TEV-cleavable); made in house
Put plainly: SPR analysis of peptides binding to immobilized AMA1 (Biacore T200). To be noted: 25°C; for fold reduction in affinity for AMA1 relative to R1_5–16: SPR alanine scan, 1% DMSO in HBS-EP; for Equilibrium dissociation constant K D, truncated R1: SPR, AMA1 immobilized on CM5 chip, HBS-EP running buffer pH 7.4, no DMSO, kinetic 1:1 fit (native R1) or steady-state affinity fit, peptide 10 nM to 10 µM, No binding = no binding event up to 10 µM peptide. The method, then: A Biacore T200 biosensor instrument was used to measure the affinity of the interaction of peptides with 3D7 PfAMA1_104–442. AMA1 was immobilized onto a CM5 chip as described. Surface plasmon resonance (SPR) experiments were performed at 25°C using HBS-EP (10 mM HEPES, 150 mM NaCl, 3.4 mM EDTA, and 0.05% surfactant P20, pH 7.4) as the running buffer either with (alanine scanning mutagenesis study) or without (truncation study) 1% DMSO. All peptide samples were prepared in the appropriate running buffer. To generate the peptide binding data, peptide at concentrations ranging from 10 nM to 10 µM was injected over immobilized AMA1 at a constant flow rate of 60 µL/min for 1.5 min; peptide dissociation was monitored by flowing running buffer at 60 µL/min for 5 min. The surface was regenerated after each cycle by injecting glycine/HCl at pH 2.0. Sensorgrams were first zeroed on the y-axis and then x-aligned at the start of the injection. Bulk refractive index changes were eliminated by subtracting the reference flow cell responses. For kinetic analysis, ka and kd were determined from the processed data sets by globally fitting to a 1∶1 binding model. For rapidly associating/dissociating truncated peptides, K D was determined by fitting to a steady-state affinity model using a fixed Rmax that was calculated based on the response of R1_5–16.
Background: In SPR one partner is held on a chip, and binding of the other changes the refractive index at the surface.

Assay [1] concerns the target T2, Domain I+II of 3D7 PfAMA1 (residue 104-442), immobilised for SPR (Plasmodium falciparum 3D7, UniProt Q7KQK5 104-442).
T2 sequence (looked up): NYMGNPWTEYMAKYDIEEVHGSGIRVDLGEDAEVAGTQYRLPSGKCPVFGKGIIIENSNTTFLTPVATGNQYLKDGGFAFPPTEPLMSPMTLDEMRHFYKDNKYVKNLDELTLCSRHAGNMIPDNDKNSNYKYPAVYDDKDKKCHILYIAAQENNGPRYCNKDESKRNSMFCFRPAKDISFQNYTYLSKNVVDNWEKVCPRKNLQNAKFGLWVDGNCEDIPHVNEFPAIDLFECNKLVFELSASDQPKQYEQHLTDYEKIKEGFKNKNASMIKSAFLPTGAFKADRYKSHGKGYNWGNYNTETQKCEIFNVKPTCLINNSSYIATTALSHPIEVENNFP
Nature of the assay: SPR. To be noted: both partners purified.

The target of assay [2] is T2, Domain I+II of 3D7 PfAMA1 (residue …). Nature of the assay: SPR. To be noted: both partners purified. The source holds these as a separate data set.
Assay [3] has the same target. Nature of the assay: SPR. To be noted: both partners purified. This is another data set of the same source.
Assay [4] deals with T3, Fractionally deuterated 3D7 PfAMA1 (residue 104-442), His6 tag cleaved, for NMR (Plasmodium falciparum 3D7, UniProt Q7KQK5 104-442, randomly fractionally deuterated (f-2H)).
T3 sequence (looked up): T2 sequence (looked up)
Put plainly: NMR titration. To be noted: both partners purified.

Entries after “also recorded” stand apart in the source; their conditions may differ. No end group written: not given here.

With Ac-FLPLFSAFGSRM-NH2 [R1_5–16 K11A], the “fold reduction in affinity for AMA1 relative to R1_5–16” value at 3D7 PfAMA1_104–442 turned out to be 15 fold.
Consider Ac-FLPLFSKFGARM-NH2 [R1_5–16 S14A], for which the “fold reduction in affinity for AMA1 relative to R1_5–16” value at 3D7 PfAMA1_104–442 was “less than 3 fold”.
Consider “R1_11–20: truncated R1 analogue, N-terminally acetylated and C-terminally amidated (Ac-KFGSRMHILK-NH2)”, for which the “Equilibrium dissociation constant K D, truncated R1” value in the assay with 3D7 PfAMA1_104–442 is listed as “No binding ^b”.
Take Ac-FLPLFSKAGSRM-NH2 [R1_5–16 F12A]: on 3D7 PfAMA1_104–442, the “fold reduction in affinity for AMA1 relative to R1_5–16” value worked out at 48 fold.
Regarding Ac-FLPLFSKFGSRA-NH2 [R1_5–16 M16A], the “fold reduction in affinity for AMA1 relative to R1_5–16” value at 3D7 PfAMA1_104–442 is given as “less than 3 fold”.
On to Ac-EFLPLFSKFGSRMH-NH2 [R1_4–17], for which the “reduction of binding affinity relative to native R1” value at 3D7 PfAMA1_104–442 (SPR truncation study, no DMSO) was around 10 fold.
As to Ac-FLALFSKFGSRM-NH2 [R1_5–16 P7A], the “fold reduction in affinity for AMA1 relative to R1_5–16” value on 3D7 PfAMA1_104–442 is on record as 35 fold.
As to “R1_5–14: 10-residue truncated R1 peptide, Arg15 deleted (Ac-FLPLFSKFGS-NH2)”, the “Equilibrium dissociation constant K D, truncated R1” value in the assay with 3D7 PfAMA1_104–442 is listed as “abolished measurable binding; also recorded: No binding ^b”.
In the case of Ac-FLPLFAKFGSRM-NH2 [R1_5–16 S10A], at 3D7 PfAMA1_104–442, the “fold reduction in affinity for AMA1 relative to R1_5–16” value is given as “less than 3 fold”.
Consider Ac-FLPLFSKFGSRM-NH2 [R1_5–16], for which the “reduction of binding affinity relative to native R1” value at 3D7 PfAMA1_104–442 (SPR truncation study, no DMSO) is recorded as around 10 fold.
On to Ac-FLPLFSKFGSR-NH2 [R1_5–15], for which the “further reduction in K D (affinity) on truncation of R1_5–16 to the 11-residue peptide” value at 3D7 PfAMA1_104–442 (SPR truncation study, no DMSO, relative to R1_5–16) was around 5 fold.
For the molecule Ac-FAPLFSKFGSRM-NH2 [R1_5–16 L6A], the “fold reduction in affinity for AMA1 relative to R1_5–16” value at 3D7 PfAMA1_104–442 is 33 fold.
“R1_1–11: truncated R1 analogue, N-terminally acetylated and C-terminally amidated (Ac-VFAEFLPLFSK-NH2)”: the “Equilibrium dissociation constant K D, truncated R1” value with 3D7 PfAMA1_104–442 is given as “no detectable binding; also recorded: No binding ^b”.
Turning to Ac-FLPLFSKFASRM-NH2 [R1_5–16 G13A], the “fold reduction in affinity for AMA1 relative to R1_5–16” value on 3D7 PfAMA1_104–442 was 21 fold.
The molecule Ac-FLPLFSKFGSR-NH2 (source: synthetic peptide (Mimotopes)) [R1_(5-15)] showed a Kd in assay [1] of 4.6 µM.
VFAEFLPLFSKFGSRMHILK [Native R1 peptide]: the “stoichiometry N” value in assay [2] was found to be 1. The same molecule had a Kd in assay [1] of 0.11 µM.
For Ac-FLPLFSKFGSRM-NH2 (source: synthetic peptide (Mimotopes)) [R1_(5-16)], the figures for the Kd in assay [1] and in assay [3] were 0.99 µM and 1.8 µM, respectively.
Molecule Ac-FAPLFSKFGSRM-NH2 (source: synthetic peptide (Mimotopes)) [R1_(5-16) L6A] returned a Kd in assay [3] of 60 µM.

B1: R1_(5-16) K11A (peptide)
peptide: Ac-FLPLFSAFGSRM-NH2
notes: also called Lys11Ala mutant; source: synthetic peptide (Mimotopes)
In turn, B1 yielded a Kd in assay [3] of 27 µM.
In turn, Ac-FLPLFSKAGSRM-NH2 (source: synthetic peptide (Mimotopes)) [R1_(5-16) F12A] had a Kd in assay [3] of 87 µM.
In assay [3], Ac-FLPLFSKFGSAM-NH2 (source: synthetic peptide (Mimotopes)) [R1_(5-16) R15A] came in with an equilibrium dissociation constant (Kd) above 100 µM.
In the case of Ac-FLALFSKFGSRM-NH2 (source: synthetic peptide (Mimotopes)) [R1_(5-16) P7A], in assay [3], the affinity, expressed as Kd, was 61 µM.
Take Ac-FLPLFSKFASRM-NH2 (source: synthetic peptide (Mimotopes)) [R1_(5-16) G13A]: in assay [3], binding was characterised by a dissociation constant (Kd) of 39 µM.
The molecule Ac-FLPLFSKFGARM-NH2 (source: synthetic peptide (Mimotopes)) [R1_(5-16) S14A] had a Kd in assay [3] of 3.3 µM.
In turn, Ac-FLPLFAKFGSRM-NH2 (source: synthetic peptide (Mimotopes)) [R1_(5-16) S10A] yielded a Kd in assay [3] of 4.8 µM.
The molecule Ac-FLPLFSKFGSRA-NH2 (source: synthetic peptide (Mimotopes)) [R1_(5-16) M16A] gave a Kd in assay [3] of 2.7 µM.
Regarding Ac-EFLPLFSKFGSRMH-NH2 (source: synthetic peptide (Mimotopes)) [R1_(4-17)], the Kd in assay [1] was found to be 0.88 µM.

B2: Recombinant f-2H, u-13C, 15N-labelled R1 peptide (peptide)
peptide: VFAEFLPLFSKFGSRMHILK
modifications: not fully specified
notes: source: E. coli BL21 (DE3), thioredoxin fusion from pET32a, purified (HisTrap, enterokinase cleavage, HiTrap QFF, RP-HPLC)
For B2, in assay [4], the “stoichiometry N” value was 1.
